In patent US20140328849A1 (Genentech, published 2014):
Substitutions are numbered along the chain they refer to.

T1: cynomolgus monkey CRTh2 (cynomolgus monkey, UniProt Q9Y5Y4 1-395 (human entry))
T1 construct: also called cyno CRTh2; cynomologous CRTh2
T1 chain: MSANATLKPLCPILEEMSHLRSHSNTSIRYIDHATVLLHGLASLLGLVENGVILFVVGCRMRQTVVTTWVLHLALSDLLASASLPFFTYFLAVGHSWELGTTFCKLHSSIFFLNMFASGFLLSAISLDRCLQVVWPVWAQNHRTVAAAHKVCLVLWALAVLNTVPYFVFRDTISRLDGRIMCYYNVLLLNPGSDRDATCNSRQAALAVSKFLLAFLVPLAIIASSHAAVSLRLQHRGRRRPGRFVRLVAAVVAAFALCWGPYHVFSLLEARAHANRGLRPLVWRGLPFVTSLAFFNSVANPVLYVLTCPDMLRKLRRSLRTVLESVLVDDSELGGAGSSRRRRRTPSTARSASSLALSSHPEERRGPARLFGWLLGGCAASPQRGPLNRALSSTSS

T2: rhesus monkey CRTh2 (rhesus monkey, UniProt Q9Y5Y4 1-395 (human entry))
T2 construct: also called rhesus CRTh2
T2 chain: T1 chain with S193P, R276P, H360R

B1: mouse anti-human CRTh2 monoclonal antibody 8B1 (antibody, V domains shown)
VH: QVQLQQSGTGLVRPGTSVRVSCKASGYAFITYLIEWIKQRPGQGLEWIGVIHPGSGNSHYNEKFKGKATLTADTSSSTAYMQLSSLTSGDSAVYFCARSGSSSFDYYAMDFWGQGTSVTVSS
VL: DIQMTQSPSSLSASLGERVSLTCRASQEISGYFSWLQQKPDGTIKRLIYAASTLDSGVPKRFSGSRSGSDYSLTISSLESEDFADYYCLQYANYPYTFGGGTKLEIK
notes: also called mu8B1; Mab 8B1
B2: mouse anti-human CRTh2 monoclonal antibody 19A2 (antibody, mouse IgG2a, V domains shown)
VH: EVKLVESGGGLVQPGGSLKLSCAASGFTFSSYSMSWVRQTPEKRLEWVAYISNGGSTTYYPGTVEGRFTISRDNAKNTLFLQMSSLRSKDTAMYYCARHRTNWDFDYWGQGTTLTVSS
VL: DIQMTQSPASLSVSVGETVTITCRASENIYSNLAWYQQKQGKSPQLVVYAATQLADGVPSRFSGSGSGTQYSLKINSLQSEDFGSYYCQHFWITPWTFGGGTKLEIK
notes: also called mu19A2; Mu19A2

Key:
cynomolgus monkey CRTh2 = molecular target: T1, cynomolgus monkey CRTh2; assay: flow cytometry on 300.19 cells expressing amino-terminal Flag-tagged cynomolgus CRTh2 [Cont.]
rhesus monkey CRTh2 [1] = molecular target: T2, rhesus monkey CRTh2; assay: flow cytometry on 300.19 cells expressing amino-terminal Flag-tagged rhesus CRTh2
rhesus monkey CRTh2 [2] = molecular target: T2, rhesus monkey CRTh2; assay: flow cytometry on 293 cells expressing rhesus CRTh2

Binder | binding result (cynomolgus monkey CRTh2) | binding result (rhesus monkey CRTh2 [1]) | binding result (rhesus monkey CRTh2 [2])
B1 | no binding (tested: 1 ug/ml) | no binding (tested: 5 ug/ml) | 
B2 |  |  | no binding (tested: 20 ug/ml)
